Measurements published in article PMC2836074 (The Journal of Biological Chemistry, 2009).

Columns and labels:
EGFP-F1LΔBH3 = EGFP-F1LΔBH3 (vaccinia virus strain Copenhagen, UniProt P68450 1-226, lacks amino acids 93–108); test: co-IP
EGFP-F1LΔBH1 = EGFP-F1LΔBH1 (vaccinia virus strain Copenhagen, UniProt P68450 1-226, lacks amino acids 144–156); test: co-IP

B1: HA-Bak (natural protein)
chain: MASGQGPGPPRQECGEPALPSASEEQVAQDTEEVFRSYVFYRHQQEQEAEGVAAPADPEMVTLPLQPSSTMGQVGRQLAIIGDDINRRYDSEFQTMLQHLQPTAENAYEYFTKIATSLFESGINWGRVVALLGFGYRLALHVYQHGLTGFLGQVTRFVVDFMLHHCIARWIAQRGGWVAALNLGNGPILNVLVVLGVVLLGQFVVRRFFKS
EGFP-F1LΔBH3
  fold decrease in Bak binding compared with wild-type F1L: 3 fold
EGFP-F1LΔBH1
  fold decrease in Bak binding compared with wild-type F1L: 8 fold
